One block for each binder: values may come before it.
How the values were obtained:
[1] = biological target: T1, IL10Rα/IL2Rγ receptor (human, UniProt Q13651 22-578; P31785 23-369); experiment: cell-based or functional assay
T1 sequence (looked up) 1: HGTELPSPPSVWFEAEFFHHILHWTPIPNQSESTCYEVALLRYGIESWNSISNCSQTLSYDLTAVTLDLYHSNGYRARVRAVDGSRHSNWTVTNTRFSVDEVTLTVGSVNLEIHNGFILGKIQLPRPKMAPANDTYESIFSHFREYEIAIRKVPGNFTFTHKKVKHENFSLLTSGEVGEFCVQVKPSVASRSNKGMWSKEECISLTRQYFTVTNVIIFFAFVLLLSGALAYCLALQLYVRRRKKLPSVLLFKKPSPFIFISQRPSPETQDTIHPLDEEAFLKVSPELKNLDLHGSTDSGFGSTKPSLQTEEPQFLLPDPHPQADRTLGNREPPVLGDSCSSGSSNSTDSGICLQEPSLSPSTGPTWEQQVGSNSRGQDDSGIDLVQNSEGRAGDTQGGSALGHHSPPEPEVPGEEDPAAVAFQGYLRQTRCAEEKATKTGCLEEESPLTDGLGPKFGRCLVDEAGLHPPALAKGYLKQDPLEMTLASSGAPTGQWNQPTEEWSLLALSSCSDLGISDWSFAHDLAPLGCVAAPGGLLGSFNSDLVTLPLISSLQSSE
T1 sequence (looked up) 2: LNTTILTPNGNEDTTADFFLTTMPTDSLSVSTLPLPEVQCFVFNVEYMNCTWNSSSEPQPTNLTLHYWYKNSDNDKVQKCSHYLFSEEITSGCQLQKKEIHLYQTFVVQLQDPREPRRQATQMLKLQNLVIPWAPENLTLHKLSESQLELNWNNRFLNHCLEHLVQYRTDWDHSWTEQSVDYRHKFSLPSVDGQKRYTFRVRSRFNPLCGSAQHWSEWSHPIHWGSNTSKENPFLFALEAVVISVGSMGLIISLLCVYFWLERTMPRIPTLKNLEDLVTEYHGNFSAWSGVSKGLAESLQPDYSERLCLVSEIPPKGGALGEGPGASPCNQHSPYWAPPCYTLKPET

[2] = biological target: T1, IL10Rα/IL2Rγ receptor; experiment: cell-based or functional assay; remark: listed apart in the source
[3] = biological target: T1, IL10Rα/IL2Rγ receptor; experiment: cell-based or functional assay; remark: listed apart in the source
[4] = biological target: T1, IL10Rα/IL2Rγ receptor; experiment: cell-based or functional assay; remark: listed apart in the source
[5] = biological target: T1, IL10Rα/IL2Rγ receptor; experiment: cell-based or functional assay; remark: listed apart in the source
[6] = biological target: T1, IL10Rα/IL2Rγ receptor; experiment: cell-based or functional assay; remark: listed apart in the source
[7] = biological target: T2, cIL2Rg-Fc (lot#P210115SV5) (cynomolgus, UniProt A0A2K5VGJ6 23-262); experiment: SPR (Biacore T200); ratio experimental/calculated Rmax
T2 construct: Named only by lot number; also called cynomolgus IL2Rg-Fc; not shown: Fc of the fusion protein
T2 sequence: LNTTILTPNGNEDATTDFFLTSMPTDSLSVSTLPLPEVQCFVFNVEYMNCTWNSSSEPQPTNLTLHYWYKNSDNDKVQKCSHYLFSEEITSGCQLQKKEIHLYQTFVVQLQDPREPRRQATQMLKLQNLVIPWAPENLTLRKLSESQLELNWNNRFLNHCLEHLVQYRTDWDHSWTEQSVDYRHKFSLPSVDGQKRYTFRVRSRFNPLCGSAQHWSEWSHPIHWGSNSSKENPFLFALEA

[8] = biological target: T3, hIL2Rg-Fc (SinoBiological cat#10555) (human, UniProt P31785 23-254, limits assumed); experiment: as above
T3 construct: Bought Fc fusion (SinoBiological cat#10555); P31785 is printed for hCD132 in the background; also called human IL2Rg-Fc; not shown: Fc of the bought fusion protein
T3 sequence (looked up): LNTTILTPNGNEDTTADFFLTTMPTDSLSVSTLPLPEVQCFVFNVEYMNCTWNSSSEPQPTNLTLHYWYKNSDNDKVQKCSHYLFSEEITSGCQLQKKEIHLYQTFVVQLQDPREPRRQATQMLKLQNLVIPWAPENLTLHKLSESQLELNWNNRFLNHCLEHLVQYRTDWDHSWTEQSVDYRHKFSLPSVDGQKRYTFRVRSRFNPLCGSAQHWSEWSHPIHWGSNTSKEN

[9] = biological target: T2, cIL2Rg-Fc (lot#P210115SV5); experiment: SPR (Biacore T200), Fc-fused ligand captured on chip, dual VHH as analyte, 1:1 Langmuir fit
Experimental: (§1) All experiments were conducted in 10 mM Hepes, 150 mM NaCl, 0.05% (v/v) Polysorbate 20 (PS20) and 3 mM EDTA (HBS-EP+ buffer) on a Biacore T200 instrument equipped with Protein A or CAP biotin chips (Cytiva). For experiments on Protein A chips, Fc-fused ligands were flowed at 5 μl/min for variable time ranging from 18 to 300 seconds, reaching the capture loads listed in the tables below. Following ligand capture, injections of a 2-fold dilution series of analyte typically comprising at least five concentrations between 1 μM and 1 nM were performed in either high performance or single cycle kinetics mode. Surface regeneration was achieved by flowing 10 mM glycine-HCl, pH 1.5 (60 seconds, […]). Buffer-subtracted sensograms were processed with Biacore T200 Evaluation Software and globally fit with a 1:1 Langmuir binding model (bulk shift set to zero) to extract kinetics and affinity constants (kₐ, kd, KD). RMAX<100 RU indicates surface density compatible with kinetics analysis. Experiments on CAP chips were performed as described above with an additional capture step of Biotin CAPture reagent (10 seconds, 40 uL/min) performed prior to capture of biotinylated ligands. Calculated Rmax were generated using the equation Rmax=Load (RU) x valency of ligand x (Molecular weight of analyte/Molecular weight of ligand. Surface activity was defined as the ratio experimental/calculated Rmax. The results of these experiments are provided in below for sample information and experimental results.

[10] = biological target: T3, hIL2Rg-Fc (SinoBiological cat#10555); experiment: as above
Experimental: as §1

B1: DR471(DR241-DR231) (bispecific antibody)
chain: QVQLQESGGGSVQAGGSLRLSCAASGYSNCSYDMTWYRQAPGKEREFVSAIHSDGSTRYADSVKGRFFISQDNAKNTVYLQMNSLKPEDTAMYYCKTDPLHCRAHGGSWYSVRANYWGQGTQVTVSSGGGSQVQLQESGGGSVQAGGSLRLSCTASGFTFDDREMNWYRQAPGNECELVSTISSDGSTYYADSVKGRFTISQDNAKNTVYLQMDSVKPEDTAVYYCAADFMIAIQAPGAGCWGQGTQVTVSSASHHHHHH
pSTAT3 MFI, B cells, 100 nM (unstimulated 1045) [1]: 1140 MFI
pSTAT3 MFI, CD4+ T cells, 100 nM (unstimulated 1778) [1]: 6240 MFI
pSTAT3 MFI, CD8+ T cells, 100 nM (unstimulated 1288) [1]: 4220 MFI
pSTAT3 MFI, Monocytes, 100 nM (unstimulated 1787) [1]: 1940 MFI
pSTAT3 MFI, NK cells, 100 nM (unstimulated 1149) [1]: 1700 MFI
pSTAT3 MFI, NK cells, 0.0001 nM (unstimulated 1315) [2]: 1230 MFI
pSTAT3 MFI, NK cells, 0.001 nM (unstimulated 1315) [2]: 1260 MFI
pSTAT3 MFI, NK cells, 0.01 nM (unstimulated 1315) [2]: 1250 MFI
pSTAT3 MFI, NK cells, 0.1 nM (unstimulated 1315) [2]: 1260 MFI
pSTAT3 MFI, NK cells, 1 nM (unstimulated 1315) [2]: 1530 MFI
pSTAT3 MFI, NK cells, 10 nM (unstimulated 1315) [2]: 2000 MFI
pSTAT3 MFI, NK cells, 100 nM (unstimulated 1315) [2]: 1940 MFI
pSTAT3 MFI, CD8 T cells, 0.0001 nM (unstimulated 1446) [3]: 1400 MFI
pSTAT3 MFI, CD8 T cells, 0.001 nM (unstimulated 1446) [3]: 1420 MFI
pSTAT3 MFI, CD8 T cells, 0.01 nM (unstimulated 1446) [3]: 1420 MFI
pSTAT3 MFI, CD8 T cells, 0.1 nM (unstimulated 1446) [3]: 1640 MFI
pSTAT3 MFI, CD8 T cells, 1 nM (unstimulated 1446) [3]: 3280 MFI
pSTAT3 MFI, CD8 T cells, 10 nM (unstimulated 1446) [3]: 4610 MFI
pSTAT3 MFI, CD8 T cells, 100 nM (unstimulated 1446) [3]: 4400 MFI
pSTAT3 MFI, CD4 T cells, 0.0001 nM (unstimulated 1887) [4]: 1800 MFI
pSTAT3 MFI, CD4 T cells, 0.001 nM (unstimulated 1887) [4]: 1860 MFI
pSTAT3 MFI, CD4 T cells, 0.01 nM (unstimulated 1887) [4]: 1860 MFI
pSTAT3 MFI, CD4 T cells, 0.1 nM (unstimulated 1887) [4]: 2250 MFI
pSTAT3 MFI, CD4 T cells, 1 nM (unstimulated 1887) [4]: 4600 MFI
pSTAT3 MFI, CD4 T cells, 10 nM (unstimulated 1887) [4]: 6800 MFI
pSTAT3 MFI, CD4 T cells, 100 nM (unstimulated 1887) [4]: 6200 MFI
pSTAT3 MFI, B cells, 0.0001 nM (unstimulated 1193.5) [5]: 1110 MFI
pSTAT3 MFI, B cells, 0.001 nM (unstimulated 1193.5) [5]: 1120 MFI
pSTAT3 MFI, B cells, 0.01 nM (unstimulated 1193.5) [5]: 1110 MFI
pSTAT3 MFI, B cells, 0.1 nM (unstimulated 1193.5) [5]: 1110 MFI
pSTAT3 MFI, B cells, 1 nM (unstimulated 1193.5) [5]: 1170 MFI
pSTAT3 MFI, B cells, 10 nM (unstimulated 1193.5) [5]: 1340 MFI
pSTAT3 MFI, B cells, 100 nM (unstimulated 1193.5) [5]: 1280 MFI
pSTAT3 MFI, Monocytes, 0.0001 nM (unstimulated 2116) [6]: 2010 MFI
pSTAT3 MFI, Monocytes, 0.001 nM (unstimulated 2116) [6]: 2030 MFI
pSTAT3 MFI, Monocytes, 0.01 nM (unstimulated 2116) [6]: 2000 MFI
pSTAT3 MFI, Monocytes, 0.1 nM (unstimulated 2116) [6]: 1990 MFI
pSTAT3 MFI, Monocytes, 1 nM (unstimulated 2116) [6]: 2030 MFI
pSTAT3 MFI, Monocytes, 10 nM (unstimulated 2116) [6]: 2230 MFI
pSTAT3 MFI, Monocytes, 100 nM (unstimulated 2116) [6]: 2210 MFI

B4: DR468(DR240-DR234) (bispecific antibody)
chain: QVQLQESGGGSVQAGGSLRLSCGASGYTYSSYCMGWFRQVPGKEREGVAVIDSDGSTSYADSVKGRFTISKDNGKNTLYLQMNSLKPEDTAMYYCAADLGHYRPPCGVLYLGMDYWGKGTQVTVSSGGGSQVQLQESGGGSVQAGGSLRLSCVASGYTFSSYCMGWFRQAPGKEREGVAALGGGSTYYADSVKGRFTISQDNAKNTLYLQMNSLKPEDTAMYYCAAAWVACLEFGGSWYDLARYKHWGQGTQVTVSSASHHHHHH
notes: Anti-hIL10Ra/hIL2Rg dual VHH with ASH6 handle; also called G8
Surface Activity [7]: 1%
Surface Activity [8]: 6%
Kd [9]: 4.3 nM
koff [9]: 0.001 s⁻¹
kon [9]: 240000 M⁻¹ s⁻¹
Kd [10]: 8.5 nM
koff [10]: 0.0015 s⁻¹
kon [10]: 170000 M⁻¹ s⁻¹

Continued, values first:

Surface Activity [7]: 2%
Surface Activity [8]: 5%
Kd [9]: 3.2 nM
koff [9]: 0.0026 s⁻¹
kon [9]: 800000 M⁻¹ s⁻¹
Kd [10]: 3.9 nM
koff [10]: 0.0078 s⁻¹
kon [10]: 2e+06 M⁻¹ s⁻¹
B2: DR395(DR229-DR239) (bispecific antibody)
chain: QVQLQESGGGLVQPGGSLRLSCTASGFSFSSYPMTWARQAPGKGLEWVSTIASDGGSTAYAASVEGRFTISRDNAKSTLYLQLNSLKTEDTAMYYCTKGYGDGTPAPGQGTQVTVSSGGGSQVQLQESGGGSVQAGGSLRLSCTVSGYTYSSNCMGWFRQAPGKEREGVATIYTGGGNTYYADSVKGRFTISQDNAKNTVYLQMNNLKPEDTAMYYCAAEPLSRVYGGSCPTPTFDYWGQGTQVTVSSASHHHHHH
notes: Anti-hIL10Ra/hIL2Rg dual VHH with ASH6 handle; also called A2

Surface Activity [7]: 1%
Surface Activity [8]: 4%
Kd [9]: 3.2 nM
koff [9]: 0.0022 s⁻¹
kon [9]: 700000 M⁻¹ s⁻¹
Kd [10]: 14.5 nM
koff [10]: 0.0037 s⁻¹
kon [10]: 250000 M⁻¹ s⁻¹
B3: DR465(DR240-DR231) (bispecific antibody)
chain: QVQLQESGGGSVQAGGSLRLSCGASGYTYSSYCMGWFRQVPGKEREGVAVIDSDGSTSYADSVKGRFTISKDNGKNTLYLQMNSLKPEDTAMYYCAADLGHYRPPCGVLYLGMDYWGKGTQVTVSSGGGSQVQLQESGGGSVQAGGSLRLSCTASGFTFDDREMNWYRQAPGNECELVSTISSDGSTYYADSVKGRFTISQDNAKNTVYLQMDSVKPEDTAVYYCAADFMIAIQAPGAGCWGQGTQVTVSSASHHHHHH
notes: Anti-hIL10Ra/hIL2Rg dual VHH with ASH6 handle; also called H1

Source: US20250163162A1 (SYNTHEKINE, published 2025)
